The source of these data is article PMC7736850, “Hemistepsin A suppresses colorectal cancer growth through inhibiting pyruvate dehydrogenase kinase activity” (Scientific Reports, 2020).

The target of experiment [1] is T1, pyruvate dehydrogenase kinase (PDK) 1 (Homo sapiens, UniProt Q15118).
T1 construct: gene PDK1
The experiment in a line: isothermal titration calorimetry (ITC). The format is binding.

For experiment [2], the target named is Pyruvate dehydrogenase kinase 1 (PDK1) protein (UniProt Q15118). The experiment in a line: ITC; PDK1 protein with the lipoamide-binding domains of PDH-E2 (L1, L2), without HsA; conditions not told in the main text. On the technique in general: In ITC the heat of successive injections is recorded.
Experiment [3] shares this target. As to the kind of experiment: ITC; PDK1 protein with the lipoamide-binding domains of PDH-E2 (L1, L2), in the presence of hemistepsin A (HsA); conditions not told in the main text.

Chain of Pyruvate dehydrogenase kinase 1 (PDK1) protein (Q15118 29-436): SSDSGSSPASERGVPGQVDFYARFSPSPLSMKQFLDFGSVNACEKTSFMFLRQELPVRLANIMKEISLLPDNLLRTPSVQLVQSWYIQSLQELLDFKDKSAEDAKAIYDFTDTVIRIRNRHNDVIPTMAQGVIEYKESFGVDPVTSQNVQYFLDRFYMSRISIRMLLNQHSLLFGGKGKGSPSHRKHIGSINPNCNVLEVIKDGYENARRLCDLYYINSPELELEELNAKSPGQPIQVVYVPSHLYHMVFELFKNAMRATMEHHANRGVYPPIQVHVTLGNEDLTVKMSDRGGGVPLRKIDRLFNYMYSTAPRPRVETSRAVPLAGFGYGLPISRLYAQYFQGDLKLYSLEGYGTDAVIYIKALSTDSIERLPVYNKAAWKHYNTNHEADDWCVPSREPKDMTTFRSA
T1 sequence (Q15118 29-436): as above

For orientation: Kd means the equilibrium constant for the complex coming apart. Molecule `C=C(CO)C(=O)OC1C2C(=C)C(=O)OC2CC(=C)C2CC(O)C(=C)C21` (centres unmarked) [HsA, Hemistepsin A] yielded an equilibrium dissociation constant (Kd) in experiment [1] of 22 µM. Regarding “L1 lipoamide-binding domain of the PDH complex E2 subunit (PDH-E2) (domain or fragment)”, the figures for the Kd in experiment [2] and in experiment [3] were 41.1 µM and 43.1 µM, respectively. In the case of “L2 lipoamide-binding domain of the PDH complex E2 subunit (PDH-E2) (domain or fragment)”, the results for the Kd in experiment [2] and in experiment [3] were 30 µM and 41 µM, respectively.
